Source: patent US7829301B2, “Screening assays for binding antagonists of the AMD-associated variant of factor H (H384)” (The University of Manchester, priority 2006, dated 2010)
Numbering of substitutions follows the chain as printed.

T1: FMOD (Bos taurus, UniProt P13605)
T1 construct: FMOD was isolated from bovine articular cartilage; from tissue; host or cells: bovine articular cartilage
T1 sequence (P13605 19-376): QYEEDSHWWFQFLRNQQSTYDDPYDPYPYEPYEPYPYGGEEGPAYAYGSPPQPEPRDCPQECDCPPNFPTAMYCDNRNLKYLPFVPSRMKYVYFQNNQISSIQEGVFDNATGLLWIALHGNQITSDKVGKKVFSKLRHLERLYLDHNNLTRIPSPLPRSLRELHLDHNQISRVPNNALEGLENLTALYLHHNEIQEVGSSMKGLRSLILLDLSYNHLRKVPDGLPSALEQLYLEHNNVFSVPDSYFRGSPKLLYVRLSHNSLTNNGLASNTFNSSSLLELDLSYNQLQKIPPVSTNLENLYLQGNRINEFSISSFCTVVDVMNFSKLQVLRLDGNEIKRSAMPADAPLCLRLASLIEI

B1: FHCCP6-8(H384): recombinant protein of Factor H CCPs 6-8, H384 allotype, with N-terminal non-authentic glycine (SEQ ID NO: 1) (protein, listed as Homo sapiens)
chain: MGTLKPCDYPDIKHGGLYHENMRRPYFPVAVGKYYSYYCDEHFETPSGSYWDHIHCTQDGWSPAVPCLRKCYFPYLENGYNQNHGRKFVQGKSIDVACHPGYALPKAQTTVTCMENGWSPTPRCIRVKTCSKSSIDIENGFISESQYTYALKEKAKYQCKLGYVTADGETSGSITCGKDGWSAQPTCI
modifications: VARIANT (1)...(188) Protein sequence of the FHCCP6-8 (H384) construct
B2: FHCCP6-8(Y384): recombinant Factor H CCPs 6-8, Y384 variant obtained by site-directed mutagenesis (SEQ ID NO: 3) (protein, listed as Homo sapiens)
chain: B1 chain with H84Y
modifications: VARIANT (1)...(188) FHCCP6-8 (Y384 allotype of mature Factor H)

Tests used:
necrotic Jurkat T cells = experiment: Flow cytometry binding to necrotic cells; format: cell-based; details: 10 μg/ml
Protocol: Jurkat T cells (ATCC), were grown in RPMI, supplemented with glutamine, penicillin, streptomycin and 10% (v/v) heat inactivated FCS (all from Invitrogen). Necrosis was induced by heat whereby the cells were brought to a concentration of 10^6 per ml and incubated at 56° C. for 30 minutes in RPMI 1640 without FCS (Trouw et al. (2005) J. Exp. Med. 201, 1937-1948).
Binding of FHCCP6-8 variants to necrotic cells was analyzed using flow cytometry. Protein binding was analyzed by incubating cells with varying concentrations of the FHCCP6-8 variants (0 to 10 μg/ml) in FACS binding buffer (10 mM HEPES, 150 mM NaCl, 5 mM KCl, 1 mM MgCl2, 1.8 mM CaCl2), with shaking for 30 minutes at room temperature. After washing twice in the same buffer, cells were stained with goat anti-FH polyclonal antibodies (Quidel) for 30 minutes at room temperature. This was followed by matched FITC-labelled secondary antibodies (Dako).

FMOD = target: T1, FMOD; experiment: Protein/protein binding assay with coated FMOD; parameters: species or system bovine
Protocol: FMOD was isolated from bovine articular cartilage (Heinghrd et al., (1986) J. Biol. Chem. 261, 13866-13872) and recombinant CRP was obtained from Calbiochem. Deglycosylated FMOD was prepared by treatment with N-glycosiadase F (Roche Applied Science) as previously described (Sjöberg et al. (2005) J. Biol. Chem. 280, 32301-32308).
CRP or FMOD was coated overnight at 4° C. onto microtiter plates (Maxisorp, Nunc) at a concentration of 10 μg/ml in 75 mM sodium carbonate buffer, pH 9.6. Wells treated only with coating buffer or 1% (w/v) BSA (Sigma) in coating buffer (for the assays involving FMOD) were used as negative controls. Between each step the wells were washed extensively with 50 mM Tris-HCl, 150 mM NaCl, 0.1% (v/v) Tween 20, pH 7.5. All wells were blocked with 1% (w/v) BSA (Sigma) in phosphate buffered saline (Invitrogen) for 1 hour at 37° C. […] The amount of bound protein was assessed using a goat polyclonal anti-FH antibody (Quidel, Cat # A312) followed by HRP-labeled anti-goat secondary antibodies (Dako) and the OPD development kit (Dako). Detection of biotinylated protein was performed using a StreptABComplex/HRP-kit from Dako, and in both cases the absorbance at 490 nm was measured to quantify protein binding.

| Molecule | binding to necrotic cells relative to the other variant (necrotic Jurkat T cells) | binding to immobilized FMOD relative to the other variant (FMOD; biotinylated FHCCP6-8 variants, all concentrations tested) | affinity for FMOD compared to H384 variant (FMOD; direct binding assay) |
| --- | --- | --- | --- |
| B1 | binds necrotic cells better | – | – |
| B2 | – | significantly stronger signals | affinity is increased |
